{
  "source": "paper doi:10.1101/2020.06.22.166033",
  "molecular_target": "biotinylated SARS-CoV-2 S2P probe (SARS-CoV-2-S2P-AVI) (SARS-CoV-2 | T4 phage) (UniProt P0DTC2)",
  "test": "SPR",
  "data": [
    {"substance": "CR3022 Fab", "values": [
      {"measurement": "Kd", "value": 91.4, "unit": "nM"}
    ]}
  ]
}
